Results on 1 substance are retold here after article PMC12448071.

The target of this assay is F-actin (actin from rabbit skeletal muscle, polymerised) (rabbit) (UniProt P68135). Put plainly: co-sedimentation; high-speed cosedimentation titration: constant 500 nM FL-HTT with increasing F-actin, 30 min RT; apparent constant (Kdapp); fit accounts for ligand depletion and incomplete saturation.

With “recombinant human full-length wild-type HTT (21 glutamines), P42858 1-3142”, the Kd was 236 nM.
